Assay [1] has as its target T1, IgG1-Fc (RED Systems; 110-HG-100) (UniProt P01857-1 100-330 = IgG part).
T1 construct: domain: Fc; Negative control, coupled to Sulfo-SBED; also called negative isotype control IgG-Fc
The experiment in a line: Sulfo-SBED photo-crosslinking to HL-60 cells, Protein A pull-down, anti-PSGL-1 Western blot. The method, then:
Also in these experiments, samples of VISTA-Fc fusion protein (described in Example I) and negative controls of an anti-CD28 antibody (BioXcell, BE0248) and IgG1-Fc (RED Systems; 110-HG-100) were covalently coupled to a bifunctional linker (Sulfo-SBED—ThermoFisher Scientific; 33073) using the manufacturing recommended conditions. The resulting samples were incubated with HL-60 cells for 30 min. at room temperature in a dark place. Crosslinking was photoactivated with a UV light source for 20 min. Cells were then lysed and a Protein A Sepharose pull-down was performed. A Western Blot using an anti-PSGL-1 polyclonal antibody (RED Systems; AF3345) or Streptavidin-HRP was performed on the samples.
A general note: Immunoblotting shows a protein as a band on a membrane.

Assay [2] deals with T2, VISTA-Fc fusion protein (human).
T2 construct: The limits of the VISTA and Fc parts are marked only by underline and bold, which are not preserved
T2 chain: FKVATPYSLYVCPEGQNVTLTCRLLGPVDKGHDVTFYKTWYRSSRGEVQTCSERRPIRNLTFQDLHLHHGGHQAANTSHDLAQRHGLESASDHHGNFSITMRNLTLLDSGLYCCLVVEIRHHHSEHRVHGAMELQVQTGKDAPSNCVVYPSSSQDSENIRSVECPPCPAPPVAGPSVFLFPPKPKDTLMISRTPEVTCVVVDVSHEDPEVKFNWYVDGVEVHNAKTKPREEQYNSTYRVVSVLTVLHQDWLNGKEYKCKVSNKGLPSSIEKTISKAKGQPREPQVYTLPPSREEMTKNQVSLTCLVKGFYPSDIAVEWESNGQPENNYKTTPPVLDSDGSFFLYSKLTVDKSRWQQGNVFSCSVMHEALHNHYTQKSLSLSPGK
The experiment in a line: biosensor, VISTA-Fc immobilized; estimated affinity, called qualitative.

Assay [3] deals with T2, VISTA-Fc fusion protein. The experiment in a line: biosensor, VISTA-Fc immobilized, PSGL-1B in flow (0.3-9.6 µM), HBS with Ca and Mg; two-state binding model. On the procedure: (§1) The immobilized VISTA-Fc sample was equilibrated in HEPES buffered saline (HBS) containing calcium (1.5 mM calcium chloride) and magnesium (1.0 mM magnesium chloride). The same buffer was used as running buffer. Samples containing the PSGL-1A or PSGL-1B, which also contained calcium and magnesium, were flowed across a solid surface containing the immobilized VISTA-Fc at a flow rate of 60 μl/min, with 120 seconds of contact time and 300 seconds for dissociation after the surface was regenerated with a 3 second pulse of glycine (pH 1.5). Six difference concentrations of PSGL-1A and PSGL-1B were assayed (0.3 μM, 0.60 μM, 1.20 μM, 2.4 μM, 4.8 μM and 9.6 μM).
(§2) Two different analyses of the experiments were performed: (1) a two-state binding model; and (2) an equilibrium affinity analysis (1:1 model).

Assay [4] concerns the target T2, VISTA-Fc fusion protein. The experiment in a line: biosensor, VISTA-Fc immobilized, PSGL-1B in flow (0.3-9.6 µM), HBS with Ca and Mg; equilibrium affinity analysis (1:1 model). The method, then: as §1, §2
The target in assay [5] is T2, VISTA-Fc fusion protein. The experiment in a line: biosensor, VISTA-Fc immobilized, PSGL-1A in flow (0.3-9.6 µM), HBS with Ca and Mg; two-state binding model. The method, then:
as §1, §2

The target in assay [6] is T2, VISTA-Fc fusion protein. The experiment in a line: biosensor, VISTA-Fc immobilized, PSGL-1A in flow (0.3-9.6 µM), HBS with Ca and Mg; equilibrium affinity analysis (1:1 model). On the procedure: as §1, §2

B1: P-selectin glycoprotein ligand 1 (PSGL-1) expressed on human cells (receptor)
chain: QATEYEYLDYDFLPETEPPEMLRNSTDTTPLTGPGTPESTTVEPAARRSTGLDAGGAVTELTTELANMGNLSTDSAAMEIQTTQPAATEAQTTPLAATEAQTTRLTATEAQTTPLAATEAQTTPPAATEAQTTQPTGLEAQTTAPAAMEAQTTAPAAMEAQTTPPAAMEAQTTQTTAMEAQTTAPEATEAQTTQPTATEAQTTPLAAMEALSTEPSATEALSMEPTTKRGLFIPFSVSSVTHKGIPMAASNLSVNYPVGAPDHISVKQCLLAILILALVATIFFVCTVVLAVRLSRKGHMYPVRNYSPTEMVCISSLLPDGGEGPSATANGGLSKAKSPGLTPEPREDREGDDLTLHSFLP
notes: Endogenous protein on cells; also called SELPLG; CD162
As to B1, the binding result in assay [1] is “no binding”.

B2: PSGL-1 construct B (Fc-fused PSGL-1 with IgG kappa signal sequence and tandem repeat unit) (Fc fusion)
chain: DQATEYEYLDYDFLPETEPPEMLRNSTDTTPLTGPGTPESTTVEPAARRSTGLDAGGAVTELTTELANMGNLSTDSAAMEIQTTQPAATEAQTTQPVPTEAQTTPLAATEAQTTRLTATEAQTTPLAATEAQTTPPAATEAQTTQPTGLEAQTTAPAAMEAQTTAPAAMEAQTTPPAAMEAQTTQTTAMEAQTTAPEATEAQTTQPTATEAQTTPLAAMEALSTEPSATEALSMEPTTKRGLFIPFSVSSVTHKGIPMAASNLSVNYPVGAPDHISVARSVECPPCPAPPVAGPSVFLFPPKPKDTLMISRTPEVTCVVVDVSHEDPEVKFNWYVDGVEVHNAKTKPREEQYNSTYRVVSVLTVLHQDWLNGKEYKCKVSNKGLPSSIEKTISKAKGQPREPQVYTLPPSREEMTKNQVSLTCLVKGFYPSDIAVEWESNGQPENNYKTTPPVLDSDGSFFLYSKLTVDKSRWQQGNVFSCSVMHEALHNHYTQKSLSLSPGK
notes: Its limits are marked only by italic, which is not preserved; Cells were co-transfected with GCNT1 and FUT3 glycosyltransferases; also called PSGL-1B
As usually defined, the Kd is the concentration at which binding is half-saturated. On to B2, for which the Kd is approximately 5 µM in assay [2], 5.09 µM in assay [3] and 4.76 µM in assay [4].

B3: PSGL-1 construct A (Fc-fused PSGL-1 with IgG kappa signal sequence and propeptide sequence) (Fc fusion)
chain: QATEYEYLDYDFLPETEPPEMLRNSTDTTPLTGPGTPESTTVEPAARRSTGLDAGGAVTELTTELANMGNLSTDSAAMEIQTTQPAATEAQTTPLAATEAQTTRLTATEAQTTPLAATEAQTTPPAATEAQTTQPTGLEAQTTAPAAMEAQTTAPAAMEAQTTPPAAMEAQTTQTTAMEAQTTAPEATEAQTTQPTATEAQTTPLAAMEALSTEPSATEALSMEPTTKRGLFIPFSVSSVTHKGIPMAASNLSVARSVECPPCPAPPVAGPSVFLFPPKPKDTLMISRTPEVTCVVVDVSHEDPEVKFNWYVDGVEVHNAKTKPREEQYNSTYRVVSVLTVLHQDWLNGKEYKCKVSNKGLPSSIEKTISKAKGQPREPQVYTLPPSREEMTKNQVSLTCLVKGFYPSDIAVEWESNGQPENNYKTTPPVLDSDGSFFLYSKLTVDKSRWQQGNVFSCSVMHEALHNHYTQKSLSLSPGK
notes: Their limits are marked only by italic and bold, which are not preserved; Cells were co-transfected with GCNT1 and FUT3 glycosyltransferases for post-translational modification; also called PSGL-1A
Consider B3, for which the Kd in assay [2] is approximately 3 µM; in assay [5] it was 32.1 µM; in assay [6], 3.01 µM.

The values above are taken from patent US20230243836A1 (published 2023).
